According to article PMC12272874, “The common homocystinuria-associated P1173L variant of human methionine synthase impairs reductive methylation” (The Journal of Biological Chemistry, 2025):

Columns and labels:
[1] = biological target: T1, Human methionine synthase (MTR), wild-type, full-length recombinant (human, UniProt Q99707 1-1265); assay: native gel or EMSA; 15 μM cob(II)alamin-bound wild-type or P1173L MTR mixed with equimolar MTRR in Buffer C (100 mM HEPES, pH 7.4, 150 mM KCl, 10% glycerol), room temperature 5 min; 4–15% gradient gel, 4 °C; details: both partners purified
T1 construct: Methionine synthase (MTR), human, full length, 140.5 kDa; codon-optimised synthetic gene in pET-28 between BamH1 and Xho1, thrombin cleavage site at the N-terminus; Monomer fraction of the size exclusion column was used; Loaded with cob(II)alamin (native gel, stopped-flow, EPR) or MeCbl (native gel with substrates); also called wild-type MTR; WT; source: E. coli BL21 (DE3), co-expressed with …
T1 sequence (Q99707 whole entry): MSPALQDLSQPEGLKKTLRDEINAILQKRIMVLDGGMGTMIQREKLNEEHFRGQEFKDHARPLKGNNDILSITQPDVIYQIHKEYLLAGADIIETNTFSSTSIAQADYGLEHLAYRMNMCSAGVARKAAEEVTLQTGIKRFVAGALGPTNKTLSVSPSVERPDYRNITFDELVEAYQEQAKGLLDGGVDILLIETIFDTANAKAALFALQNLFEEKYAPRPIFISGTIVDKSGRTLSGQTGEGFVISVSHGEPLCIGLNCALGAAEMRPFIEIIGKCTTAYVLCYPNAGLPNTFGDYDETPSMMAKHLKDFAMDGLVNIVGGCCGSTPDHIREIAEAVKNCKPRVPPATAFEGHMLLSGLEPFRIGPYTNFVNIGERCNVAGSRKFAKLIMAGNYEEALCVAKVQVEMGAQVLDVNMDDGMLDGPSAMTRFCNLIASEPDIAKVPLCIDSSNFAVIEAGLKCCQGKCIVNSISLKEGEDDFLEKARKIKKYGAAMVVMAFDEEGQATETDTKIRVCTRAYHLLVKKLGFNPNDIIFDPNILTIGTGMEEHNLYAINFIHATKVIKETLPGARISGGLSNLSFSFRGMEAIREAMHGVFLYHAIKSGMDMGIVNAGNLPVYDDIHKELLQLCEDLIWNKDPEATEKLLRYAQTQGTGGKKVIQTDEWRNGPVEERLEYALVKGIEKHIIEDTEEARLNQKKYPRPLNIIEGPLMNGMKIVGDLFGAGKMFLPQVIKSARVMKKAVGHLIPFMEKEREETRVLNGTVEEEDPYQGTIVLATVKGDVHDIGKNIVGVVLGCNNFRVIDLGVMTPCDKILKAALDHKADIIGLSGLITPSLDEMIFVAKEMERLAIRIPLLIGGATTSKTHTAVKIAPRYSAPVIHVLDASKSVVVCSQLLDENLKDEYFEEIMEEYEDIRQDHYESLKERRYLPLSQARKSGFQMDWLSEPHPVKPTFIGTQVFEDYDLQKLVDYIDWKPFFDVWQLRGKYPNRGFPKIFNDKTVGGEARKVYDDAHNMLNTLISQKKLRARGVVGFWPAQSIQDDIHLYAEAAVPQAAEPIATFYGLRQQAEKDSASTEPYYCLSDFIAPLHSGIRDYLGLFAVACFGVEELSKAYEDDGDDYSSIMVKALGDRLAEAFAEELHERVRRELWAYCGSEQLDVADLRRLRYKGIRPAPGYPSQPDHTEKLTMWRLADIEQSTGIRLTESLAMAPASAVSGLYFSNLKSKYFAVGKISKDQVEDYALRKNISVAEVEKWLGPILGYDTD

[2] = biological target: T2, P1173L variant of human methionine synthase (MTR), full-length recombinant (human, UniProt Q99707 1-1265, P1173L); assay: as above; details: both partners purified
T2 construct: Methionine synthase (MTR), human, full length, clinical missense variant P1173L made from the wild-type pET28-thrombin-MTR construct; Homocystinuria-associated variant that occurs in patients; Same expression and purification as the wild type; Loaded with cob(II)alamin or MeCbl; also called P1173L MTR; P→L; source: E. coli BL21 (DE3), co-expressed with GST-tagged ΔNMMADHC, purified (Ni-NTA, size …)
T2 sequence (Q99707 whole entry P1173L): as the sequence (Q99707 whole entry) above, with P1173L counted along it

binding result [1]: binds
binding result [2]: binds
B1: Human methionine synthase reductase (MTRR), full-length recombinant (enzyme, UniProt Q9UBK8-2 1-698, looked up)
chain: MRRFLLLYATQQGQAKAIAEEICEQAVVHGFSADLHCISESDKYDLKTETAPLVVVVSTTGTGDPPDTARKFVKEIQNQTLPVDFFAHLRYGLLGLGDSEYTYFCNGGKIIDKRLQELGARHFYDTGHADDCVGLELVVEPWIAGLWPALRKHFRSSRGQEEISGALPVASPASSRTDLVKSELLHIESQVELLRFDDSGRKDSEVLKQNAVNSNQSNVVIEDFESSLTRSVPPLSQASLNIPGLPPEYLQVHLQESLGQEESQVSVTSADPVFQVPISKAVQLTTNDAIKTTLLVELDISNTDFSYQPGDAFSVICPNSDSEVQSLLQRLQLEDKREHCVLLKIKADTKKKGATLPQHIPAGCSLQFIFTWCLEIRAIPKKAFLRALVDYTSDSAEKRRLQELCSKQGAADYSRFVRDACACLLDLLLAFPSCQPPLSLLLEHLPKLQPRPYSCASSSLFHPGKLHFVFNIVEFLSTATTEVLRKGVCTGWLALLVASVLQPNIHASHEDSGKALAPKISISPRTTNSFHLPDDPSIPIIMVGPGTGIAPFIGFLQHREKLQEQHPDGNFGAMWLFFGCRHKDRDYLFRKELRHFLKHGILTHLKVSFSRDAPVGEEEAPAKYVQDNIQLHGQQVARILLQENGHIYVCGDAKNMAKDVHDALVQIISKEVGVEKLEAMKTLATLKEEKRYLQDIWS
notes: Methionine synthase reductase (MTRR), human, full length; purified by the same protocol as ΔCMTRR; source: E. coli BL21(DE3), purified (Glutathione Sepharose 4B, thrombin cleavage, size exclusion chromatography); not shown: GST, N-terminal, cleaved
